These results are taken from the supplement of paper PMC10567573.

B1: TRIB1 (parent)
chain: EIGTSDQIVPEYQEDSDISSFFC
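Further: lentivirally expressed fusions sorted by FACS into six bins by GFP to DsRed ratio, PSI derived from sequencing read proportions per bin multiplied by bin number.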

The variants in this data set derive from B1. Description: protein stability index of a GFP-peptide fusion (GPS, HEK-293T) (PSI 1-6); higher = more stable. The settings on record: c terminus: native.
In the case of EIGTSDQIVPEYQEDSDISSFFD [C23D], the protein stability index stood at 2.51.
For the variant EIGTSDQIVPEYQEDSDISSFFY [C23Y], the protein stability index is 2.26.
For the variant EIGTSDQIVPEYQEDSDISSFFE [C23E], the protein stability index stood at 2.94.
As for EIGTSDQIVPEYQEDSDISSFFS [C23S], the protein stability index was determined as 2.8.
For the variant EIGTSDVIVPEYQEDSDISSFFC [Q7V], the protein stability index turned out to be 5.02.
Turning to EIGTSDRIVPEYQEDSDISSFFC [Q7R], the protein stability index was 5.27.
Turning to EIGTSDCIVPEYQEDSDISSFFC [Q7C], the protein stability index is 5.1.
With EIGTSDGIVPEYQEDSDISSFFC [Q7G], the protein stability index came to 5.28.
Consider EIGTSDPIVPEYQEDSDISSFFC [Q7P], for which the protein stability index came to 5.3.
For the variant EIGTSDIIVPEYQEDSDISSFFC [Q7I], the protein stability index was 4.95.
Regarding EIGTSDEIVPEYQEDSDISSFFC [Q7E], the protein stability index turned out to be 5.58.
For EIGTSDMIVPEYQEDSDISSFFC [Q7M], the protein stability index amounted to 4.79.
As to EIGTSDQIVPEYQEDSDCSSFFC [I18C], the protein stability index was found to be 3.16.
Consider EIGTSDQIVPEYQEDSDYSSFFC [I18Y], for which the protein stability index is 3.25.
With EIGTSDQIVPEYQEDSDESSFFC [I18E], the protein stability index came to 2.69.
The value for EIGTSDQIVPEYQEDSDVSSFFC [I18V] was 3.08.
For the variant EIGTSDQIVPEYQEDSDLSSFFC [I18L], the protein stability index amounted to 2.92.
As for EIGTSDQIVPEYQEDSDSSSFFC [I18S], the protein stability index was found to be 3.64.
For the variant EIGTSDQVVPEYQEDSDISSFFC [I8V], the protein stability index came out at 2.07.
In the case of EIGTSDQLVPEYQEDSDISSFFC [I8L], the protein stability index is 4.11.
Consider EIGTSDQCVPEYQEDSDISSFFC [I8C], for which the protein stability index was 3.62.
The same measure for EIGTSDQSVPEYQEDSDISSFFC [I8S]: 5.18; for EIGTSDQPVPEYQEDSDISSFFC [I8P]: 5.36.
For EIGTSDQYVPEYQEDSDISSFFC [I8Y], the protein stability index turned out to be 5.08.
Take EIGTSDQHVPEYQEDSDISSFFC [I8H]: the protein stability index came to 5.15.
For the variant EIGTSDQMVPEYQEDSDISSFFC [I8M], the protein stability index came out at 3.54.
Take EIGTSDQQVPEYQEDSDISSFFC [I8Q]: the protein stability index came out at 3.93.
With EIGTSDQIVPEYQEDTDISSFFC [S16T], the protein stability index amounted to 2.56.
As to EIGTSDQIVPEYQEDFDISSFFC [S16F], the protein stability index worked out at 2.6.
EIGTSDQIVPEYQEDNDISSFFC [S16N]: the protein stability index worked out at 2.68.
Regarding EIGTSDQIVPEYQEDQDISSFFC [S16Q], the protein stability index was 3.32.
For EIGTDDQIVPEYQEDSDISSFFC [S5D], the protein stability index was found to be 2.97.
Regarding EIGTQDQIVPEYQEDSDISSFFC [S5Q], the protein stability index turned out to be 2.42.
As to EIGTIDQIVPEYQEDSDISSFFC [S5I], the protein stability index is 2.95.
Consider EIGTKDQIVPEYQEDSDISSFFC [S5K], for which the protein stability index came to 3.47.
The value for EIGTRDQIVPEYQEDSDISSFFC [S5R] was 2.77.
As to EIGTFDQIVPEYQEDSDISSFFC [S5F], the protein stability index is 2.31.
As for EIGTMDQIVPEYQEDSDISSFFC [S5M], the protein stability index came to 2.56.
As to EIGTVDQIVPEYQEDSDISSFFC [S5V], the protein stability index stood at 3.15.
Take EIGTLDQIVPEYQEDSDISSFFC [S5L]: the protein stability index was 2.95.
The same measure for EIGTEDQIVPEYQEDSDISSFFC [S5E]: 2.77.
Turning to EIGTWDQIVPEYQEDSDISSFFC [S5W], the protein stability index was 3.02.
EIGTSDQIVPEYQEDSDIPSFFC [S19P]: the protein stability index stood at 2.94.
The same measure for EIGTSDQIVPEYQEDSDIHSFFC [S19H]: 2.89; for EIGTSDQIVPEYQEDSDIQSFFC [S19Q]: 3.48; for EIGTSDQIVPEYQEDSDINSFFC [S19N]: 2.92.
Take EIGTSDQIVPEYQEDSDIESFFC [S19E]: the protein stability index was found to be 2.83.
On to EIGTSDQIVPEYQEDSDIGSFFC [S19G], for which the protein stability index came out at 2.05.
Take EIGTSDQIVPEYQEDSDIYSFFC [S19Y]: the protein stability index worked out at 1.84.
The value for EIGTSDQIVPEYQEDSDIMSFFC [S19M] was 1.75.
Take EIGTSDQIVPEYQEDSDIKSFFC [S19K]: the protein stability index turned out to be 4.21.
EIGTSDQIVPEYQEDSDITSFFC [S19T]: the protein stability index worked out at 2.35.
In the case of EIGTSDQIVPEYQEDSDIDSFFC [S19D], the protein stability index is 2.67.
Regarding EIGTSDQIVPEQQEDSDISSFFC [Y12Q], the protein stability index amounted to 4.51.
EIGTSDQIVPEVQEDSDISSFFC [Y12V]: the protein stability index amounted to 3.07.
Regarding EIGTSDQIVPEIQEDSDISSFFC [Y12I], the protein stability index came to 2.91.
For the variant EIGTSDQIVPEAQEDSDISSFFC [Y12A], the protein stability index worked out at 3.25.
In the case of EIGTSDQIVPETQEDSDISSFFC [Y12T], the protein stability index stood at 4.48.
With EIGTSDQIVPEWQEDSDISSFFC [Y12W], the protein stability index was 2.44.
For the variant EIGTSDQIVPEHQEDSDISSFFC [Y12H], the protein stability index came to 4.37.
On to EIGTSDQIVPENQEDSDISSFFC [Y12N], for which the protein stability index stood at 5.03.
The value for EIGTSDQIVPECQEDSDISSFFC [Y12C] was 3.68; that for EIGTSDQIVPEMQEDSDISSFFC [Y12M] was 2.12.
EIGTSDQIVPEYQEDSAISSFFC [D17A]: the protein stability index is 3.21.
As for EIGTSDQIVPEYQEDSMISSFFC [D17M], the protein stability index came out at 3.16.
Regarding EIGTSDQIVPEYQEDSCISSFFC [D17C], the protein stability index came out at 2.92.
Turning to EIGTSDQIVPEYQEDSNISSFFC [D17N], the protein stability index was 3.26.
As for EIGTSDQIVPEYQEDSHISSFFC [D17H], the protein stability index amounted to 3.47.
The value for EIGTSDQIVPEYQEDSFISSFFC [D17F] was 3.2; that for EIGTSDQIVPEYQEDSEISSFFC [D17E] was 2.61; that for EIGTSDQIVPEYGEDSDISSFFC [Q13G] was 2.13.
With EIGTSDQIVPEYAEDSDISSFFC [Q13A], the protein stability index came to 2.54.
With EIGTSDQIVPEYSEDSDISSFFC [Q13S], the protein stability index is 2.43.
The value for EIGTSDQIVPEYIEDSDISSFFC [Q13I] was 2.36; that for EIGTSDQIVPEYFEDSDISSFFC [Q13F] was 1.81; that for EIGTSDQIVPEYVEDSDISSFFC [Q13V] was 2.52.
As for EIGTSDQIVPEYCEDSDISSFFC [Q13C], the protein stability index stood at 2.59.
The same measure for EIGTSDQIVPEYKEDSDISSFFC [Q13K]: 3.39; for EIGTSDQIVPEYTEDSDISSFFC [Q13T]: 1.97.
With EIGTSDQIVPEYQTDSDISSFFC [E14T], the protein stability index came to 2.81.
Turning to EIGTSDQIVPEYQKDSDISSFFC [E14K], the protein stability index stood at 4.03.
Regarding EIGTSDQIVPEYQGDSDISSFFC [E14G], the protein stability index worked out at 2.83.
EIGTSDQIVPEYQSDSDISSFFC [E14S]: the protein stability index is 2.88.
Take EIGTSDQIVPEYQIDSDISSFFC [E14I]: the protein stability index worked out at 1.68.
For the variant EIGTSDQIVPEYQMDSDISSFFC [E14M], the protein stability index stood at 2.4.
For EIGTSDQIVPEYQADSDISSFFC [E14A], the protein stability index was determined as 2.81.
With EIGTSDQIVPEYQWDSDISSFFC [E14W], the protein stability index is 1.7.
As for EFGTSDQIVPEYQEDSDISSFFC [I2F], the protein stability index was 2.59.
The value for EWGTSDQIVPEYQEDSDISSFFC [I2W] was 2.06; that for EHGTSDQIVPEYQEDSDISSFFC [I2H] was 3.45.
The value for EMGTSDQIVPEYQEDSDISSFFC [I2M] was 3.15; that for EPGTSDQIVPEYQEDSDISSFFC [I2P] was 4.12; that for ESGTSDQIVPEYQEDSDISSFFC [I2S] was 2.94.
The value for EAGTSDQIVPEYQEDSDISSFFC [I2A] was 2.86; that for EEGTSDQIVPEYQEDSDISSFFC [I2E] was 3.64.
For EQGTSDQIVPEYQEDSDISSFFC [I2Q], the protein stability index was determined as 2.73.
The same measure for EKGTSDQIVPEYQEDSDISSFFC [I2K]: 2.9.
